The values that follow come from US20140274782A1 (Stanford University, published 2014).

For experiment [1], the target named is T1, GAL-galanin prepropeptide (GAL) (human, UniProt P22466 1-123, limits assumed).
T1 sequence (looked up): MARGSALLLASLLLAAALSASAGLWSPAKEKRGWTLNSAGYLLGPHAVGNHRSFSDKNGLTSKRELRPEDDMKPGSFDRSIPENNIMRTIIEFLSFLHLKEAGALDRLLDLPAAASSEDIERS
Nature of the experiment: ProtoArray, GST-treated control array.
Protocol: (§1) Briefly, a ProtoArray (Invitrogen, version 5.0) was incubated overnight with 50 μg of GST or recombinant GSTtagged G9a SET domain and the cofactor SAM.
(§2) Arrays were analyzed using GenePix Pro 6.1 software (Molecular Devices) and feature values were assigned to proteins using the array list provided by Invitrogen. We designated the following criteria for “hits”: GST array signal-to-noise ratio (SNR) less than or equal to 1.5, G9a array SNR greater than or equal to 10, and a difference between the G9a array SNR and the GST array SNR of greater than or equal to 12. Hits were individually visually validated. Proteins were removed from the list of potential substrates if irregular array features appeared to interfere with the array spots or SNR calculations.

The target of experiment [2] is LOC400500, G9a-methylated (human). Put plainly: ProtoArray, G9a array SNR minus GST array SNR.
Protocol: as §1, §2
(§3) Protein arrays bearing almost 9500 recombinant human proteins were methylated using GST-tagged recombinant G9a SET domain or GST alone as a control as shown in FIG. 4. […] Results were filtered for proteins scoring a GST array signal-to-noise ratio (SNR) less than or equal to 1.5, a G9a array SNR greater to or equal to 10, and a difference between the G9a and GST SNRs of greater than or equal to 12. Subsequent proteins were individually inspected for irregular array features.
The next experiment deals with MGC4473, G9a-methylated (human). Nature of the experiment: ProtoArray, G9a array SNR minus GST array SNR.
Experiment [3] concerns the target cDNA clone IMAGE:4623222 product, G9a-methylated (human). Put plainly: ProtoArray, G9a array SNR minus GST array SNR.
Protocol: as §1, §2, §3
Experiment [4] deals with LOC145788, G9a-methylated (human). Nature of the experiment: ProtoArray, G9a array SNR minus GST array SNR.
Protocol: as §1, §2, §3

Protocol for MGC4473, G9a-methylated: as §1, §2, §3

B1: 3× Flag-3×MBT (designed binder)
chain: EEWSSSQPATGEKKECWSWESYLEEQKAITAPVSLFQDSQAVTHNKNGFKLGMKLEGIDPQHPSMYFILTVAEVCGYRLRLHFDGYSECHDFWVNANSPDIHPAGWFEKTGHKLQPPKGYKEEEFSWSQYLRSTRAQAAPKHLFVSQSHSPPPLGFQVGMKLEAVDRMNPSLVCVASVTDVVDSRFLVHFDNWDDTYDYWCDPSSPYIHPVGWCQKQGKPLTPPQDYPDPDNFCWEKYLEETGASAVPTWAFKVRPPHSFLVNMKLEAVDRRNPALIRVASVEDVEDHRIKIHFDGWSHGYDFWIDADHPDIHPAGWCSKTGHPLQPPLGPREPSSASPGG
notes: also called Flag-tagged 3×MBT; 3xFlag-3xMBT; not shown: made by PreScission cleavage of GST-3× Flag-3×MBT
Turning to B1, the binding result in experiment [1] was “no binding (tested: GST array SNR <= 1.5)”. The G9a-GST in experiment [2] turned out to be 29.1; in the experiment with MGC4473, G9a-methylated, 21.7; in experiment [3], 17.8; in experiment [4], 13.8.
